Values quoted from earlier work, collected in patent US20240293553A1, “P-SELECTIN INHIBITORS AND USES THEREOF” (Beth Israel Deaconess Medical Center, Inc., priority 2021, published 2024).
Where “and” joins values, the source holds several entries; their conditions need not be identical. Equal values may be shown once.

T1: P-selectin (Homo sapiens, UniProt P16109)
T1 sequence (P16109 42-830): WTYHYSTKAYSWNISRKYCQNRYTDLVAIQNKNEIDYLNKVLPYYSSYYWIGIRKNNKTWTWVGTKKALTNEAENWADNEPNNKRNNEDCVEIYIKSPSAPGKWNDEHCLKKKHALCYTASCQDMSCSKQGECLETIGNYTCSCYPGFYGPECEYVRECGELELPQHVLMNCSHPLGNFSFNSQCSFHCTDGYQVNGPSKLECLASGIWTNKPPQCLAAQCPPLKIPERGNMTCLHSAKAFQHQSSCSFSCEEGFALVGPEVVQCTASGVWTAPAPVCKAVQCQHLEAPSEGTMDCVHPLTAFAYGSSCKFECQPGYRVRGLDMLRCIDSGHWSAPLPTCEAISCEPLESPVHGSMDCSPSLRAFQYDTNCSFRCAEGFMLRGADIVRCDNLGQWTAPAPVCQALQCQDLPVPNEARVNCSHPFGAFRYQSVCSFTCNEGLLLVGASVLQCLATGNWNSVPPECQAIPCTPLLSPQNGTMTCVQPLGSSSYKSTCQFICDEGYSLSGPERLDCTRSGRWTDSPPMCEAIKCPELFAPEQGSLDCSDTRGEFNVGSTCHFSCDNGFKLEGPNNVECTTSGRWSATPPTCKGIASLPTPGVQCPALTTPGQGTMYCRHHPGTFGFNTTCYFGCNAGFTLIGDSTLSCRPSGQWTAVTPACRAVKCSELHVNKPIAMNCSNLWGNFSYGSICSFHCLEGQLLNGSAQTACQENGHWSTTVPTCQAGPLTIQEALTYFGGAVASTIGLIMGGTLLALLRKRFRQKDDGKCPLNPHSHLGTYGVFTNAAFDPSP


Tests used:
P-selectin = target: T1, P-selectin; settings: reported values
[1] = literature values

Kd (P-selectin)	Molecule	t1/2 [1] [days]
73 nM and 70 to 300 nM	PSGL-1: P-selectin glycoprotein ligand-1, glycoprotein expressed on the surface of all leukocytes; native ligand of P-selectin (protein, UniProt Q14242 42-412, looked up) P-selectin glycoprotein …: QATEYEYLDYDFLPETEPPEMLRNSTDTTPLTGPGTPESTTVEPAARRSTGLDAGGAVTELTTELANMGNLSTDSAAMEIQTTQPAATEAQTTQPVPTEAQTTPLAATEAQTTRLTATEAQTTPLAATEAQTTPPAATEAQTTQPTGLEAQTTAPAAMEAQTTAPAAMEAQTTPPAAMEAQTTQTTAMEAQTTAPEATEAQTTQPTATEAQTTPLAAMEALSTEPSATEALSMEPTTKRGLFIPFSVSSVTHKGIPMAASNLSVNYPVGAPDHISVKQCLLAILILALVATIFFVCTVVLAVRLSRKGHMYPVRNYSPTEMVCISSLLPDGGEGPSATANGGLSKAKSPGLTPEPREDREGDDLTLHSFLP	
	crizanlizumab: anti-P-selectin mAb approved for the treatment of sickle cell disease (antibody, chains of the INN, looked up, V domains shown) VH: QVQLVQSGAEVKKPGASVKVSCKVSGYTFTSYDINWVRQAPGKGLEWMGWIYPGDGSIKYNEKFKGRVTMTVDKSTDTAYMELSSLRSEDTAVYYCARRGEYGNYEGAMDYWGQGTLVTVSS VL: DIQMTQSPSSLSASVGDRVTITCKASQSVDYDGHSYMNWYQQKPGKAPKLLIYAASNLESGVPSRFSGSGSGTDFTLTISSLQPEDFATYYCQQSDENPLTFGGGTKVEIK	10.6
